Experimental data reported in the nanobody polyreactivity screen of Harvey et al. (2022).

Assay: yeast display, Sf9 membrane polyspecificity reagent, FACS + sequencing; frameworks hold sequencing errors
Summary of the method: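 Sorting gates, low and high (top ~1%), were placed on anti-HA fluorescence to track expression and on streptavidin fluorescence to track reagent binding. A clone's polyreactivity label is taken from the gate it came out of. The reagent was 10% biotinylated, detergent-solubilized Sf9 membrane, applied for 1 hour at 4 °C to galactose-induced yeast display cells.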
In the case of “QVQLVESGGGLVQAGGSLRLSCAASGFIFVPNAMGWYRQAPGNERELVAAIRSSGGTTYYADSVKGRFTISRDNAKNTVYLQMNSLKPEDTAVYYCAAKYTSRLNSGYSNYYWGQGTQVTVSW”, the “polyreactivity (PSR sort gate)” value is reported as “high polyreactivity”.
For “QVQLVESGGGLVQAGGSLRLSCAASRLTFQQYAMGWYRQAPGKERELVAAITSDGASTNYADSVKGRFTISRDNAKNTVYLQMNSLKPEDTAVYYCAARRRSRQYRYDYWGQGTQVTVSS”, the “polyreactivity (PSR sort gate)” value was “high polyreactivity”.
In the case of “QVQLVESGGGLVQAGGSLRLSSAASGSIFELNAMGWYRQAPGKERELVASISFRGTSTYYADSVKGRFTISRDYAKNTVYLKMNSLKPDDNAVYYCAADTTFPFSYWGQGTQVTVSS”, the “polyreactivity (PSR sort gate)” value is reported as “low polyreactivity”.
For “QVQLVESGGGLVQAGGSLRLSCAASGRIFSGYTMGWYRQAPGKERELVAAIRVGGGRTYYADSVKGRFTISRDNSKNTVYLQMYSLKPEDTAVYYCAKLYIRHGYDYWGQGTQVTVSS”, the “polyreactivity (PSR sort gate)” value was “low polyreactivity”.
For “QVQLVESGGGLVQAGGSLRLSCAASGFTFVSNDMGWYRQEPGKERELVAAISQGGGSTYYADSVKGRFTISRDNAKNTVYLQINSLKPEDTAVYYCAAEDVYFGYDYWGQGTQVTVSS”, the “polyreactivity (PSR sort gate)” value was “low polyreactivity”.
With “QVQLVESGGGLVQAGGSLRLSCAASGSTFYDYAMGWYRQAPGKERELVASISISGGSTYADSVKGRFTISRDNAKNTVYLQMNSLKPEDTAVYYCAADSWGIGYGPDYEYWGQGTQVTVSS” the “polyreactivity (PSR sort gate)” value was “low polyreactivity”.
For “QVQLVESGGGLVQARGSLRLSCAASGSIFPPYAMGWYRQAPGKERELVAAINSGGSTNYADSVKGRFTISRDNAKNTVYLQMNSLKAEDTAVYYCAAEVVYPVYEYDYWGQGTQVTVSS”, the “polyreactivity (PSR sort gate)” value was “low polyreactivity”.
With “QVQLVESGGGLVQAGGSLRLSCAASGRTLYLYAMGWYRQEPGKERELVAGITWSGGSTYYADSVKGRFTISRDNAKNTVYLQMNSLKPEDTAVYYCAAVSYPDYDYWGQGTQVTVSS” the “polyreactivity (PSR sort gate)” value was “low polyreactivity”.
With “QVQLVESGGGLVQAGGSLRLSCAASGRIFLWYAMGWYRQAPGKERELVASITRSGVTTYYADSVKGRFTISRDNAKNTVYLQMKSLKPEDTAVYYCNKDFRGDAIKLDVNYWGQGTQVTVSS” the “polyreactivity (PSR sort gate)” value was “low polyreactivity”.
In the case of “QVQLVESGGGLVQAGGSLRLSCAASGLICTPYAMGWYRQSPGKERELVAAISVSGGRTYYADSVKGRFTISRDNAKNTVYLQMNSLKREDTAVYYCAAALPYGYEYWGQGTQVTVSS”, the “polyreactivity (PSR sort gate)” value is reported as “high polyreactivity”.
With “QVQLVESGGGLVQAGGSLRLSCAASGRTSYGYAMGWYRQAPGKERELVAAITSSGGSTYYADSVKGRFTISRDNAKNTVYLEMNSLKPEDTAVYYCAASRVRYSYGYPYYYWGQGTQVTVSS” the “polyreactivity (PSR sort gate)” value was “high polyreactivity”.
For “QVQLLESGGGLVQAGGSLRLSCAASGSIFATYAMGWYRQAPGKERELVAAISSSGARTYYADSVKGRFTISRDNAKNTVYLQMNSLKPEDTAVYYCNADLYSYFWRVRYGLDYWGQGTQVTVSS”, the “polyreactivity (PSR sort gate)” value was “high polyreactivity”.
With “QVQLVESGGGLVQAGGSLRLSCAASGSTFHTYDMGWYRQAPGKERELVAAITSGGDTNYADSVKGRFTISRDNAKNTVYLQMNSLKPEDTAVYYCNTDRWGTGKLRYNYWGQGTQVTVSS” the “polyreactivity (PSR sort gate)” value was “low polyreactivity”.
For “QVQLGESGGGLVQAGGSLRLSCAASGRTFLKNALGWYRPAPGKERELVAAITSGGSTNYADSVKGRFTISRDNAKNTVYFQMNCLKPEDTAVYYCAAEYTYGSPYDYWGQGTQVTVSS”, the “polyreactivity (PSR sort gate)” value was “low polyreactivity”.
For “QVQLVESGGGLVQAGGSLRLSCAASGITFNYYVMGWYRQAPGKERELVAAIRRGGSTNYADSVKGRFTISRDNAKNPVYLQMNSLKPEDTAVYYCAARTYRGLAYDYWGQGTQVTVSS”, the “polyreactivity (PSR sort gate)” value was “high polyreactivity”.
In the case of “QVQLVESGGGLVQAGGSLRLSCAASGRTFAYNTMGWYRQAPGKERELVARINSGTSTYYADSVKGRFTISRDNAKNTVYLQMNRLKPEDTAVYYCNAYSWYGYDYWGQGTQVTVSS”, the “polyreactivity (PSR sort gate)” value is reported as “high polyreactivity”.
With “QVQLVESGGGLVQAGGSLRLSCAASGRIFGRNAMGWYRQAPGKERELVAAIRLSGGSTYYADSVKGRFTISRDNAKNTVYLQMNSLKPEDTAVYYCATRPVANGRKYDYWGQGTQVTVSS” the “polyreactivity (PSR sort gate)” value was “high polyreactivity”.
With “QVQLVESGGGLVQAGGSLRLSCAASGFIIVIYAMGWYIQAPGKERELVAAIRWRGGGTYYADSVKGRFTISRDNAKNTVYLQMNSLKPEDTAVYYCNADGWTYREEYWWRMDYWGLGTQVTVSS” the “polyreactivity (PSR sort gate)” value was “low polyreactivity”.
With “QVQLVESGGGLVQAGGSLRLSCAASGRIFRYYAMGWYRQAPGKERELVAVISSRGGSTFYADSVKGRFTISRDNAKNTVYLQMNSLKPEDTAVYYCASRSLYVGYDYWGQGTQVTVSS” the “polyreactivity (PSR sort gate)” value was “high polyreactivity”.
For “QVQLVESGGGLVQAGGSLRLSCAASGSIFVPYTMGWYTQAPGKERELVASISYSGGTTYYADSVKGRFTISRDNAKNTVYLQMNSLKPEDTAVYYCAADWDESFSYRRYRHYDYWGQGTQVTVSS”, the “polyreactivity (PSR sort gate)” value was “low polyreactivity”.
In the case of “QVQLVESGGGLVQAGGSLRLSCAASGIIFYYNTMGWYRQAPGKERELVAAISQRGGSTYYADSVKGRFTISRDNAKNTVYLQMNSLKPEDTAVYYCNKLRNSHGFRYDYWGQGTQVTVSS”, the “polyreactivity (PSR sort gate)” value is reported as “high polyreactivity”.
For “QVQLVESGGGLVQAGGSLRLSCAASGYIIRRYSMVWYIQAPGKESEWVAVISSRGGSTYYADSVKGRFTISRDYAKNTVYLQMNSLKPEDTPVYYCAARSGSRATVLSDYWGQGTQVTVSS”, the “polyreactivity (PSR sort gate)” value was “high polyreactivity”.
In the case of “QVQLVESGGGLVQAGGSLRLSCAASGLTFGHYAMGWYRQAPGKERELVATISSRGVSTRYADSVKGRFTISRDNAKNTVYLQMNSLKPEDTAVYYCNARDYTWGKYYSSKIGYYYWGQGTQVTVSS”, the “polyreactivity (PSR sort gate)” value is reported as “high polyreactivity”.
With “QVQLVESGGGLVQAGGSLRLSCAASGRIIGYYAMGWYRQAPGKEWELVAAITSSGSRTYYADSVKGRFTISRDNAKNTVYLQMNSLKPDDTAVYYCATTKVYYSAKSSYYYWGQGNQVTVSS” the “polyreactivity (PSR sort gate)” value was “high polyreactivity”.
For “QVQLVESGGGLVQAGGSLRLSCAASGRIFYSNAMGWYRQAPGKERELVAASRWSGTRTSYADSVKGRFTISRDNAKNTVYLQMNSLKPEDTAVYYCAAAGWYHSYWGQGTQVTVSS”, the “polyreactivity (PSR sort gate)” value was “high polyreactivity”.
With “QVQLVESGGGLVQAGGSLRLSCAASGLTFGYYAMGWYRPAPGKEREFVAAISKSGGGTYYADSVKGRFTISRDNAKNTVYLQMNSLKPEDTAVYYCAARWFVGYNYWGQGTQVTVSS” the “polyreactivity (PSR sort gate)” value was “high polyreactivity”.
With “QVQLVESGGGLVQAGGSLRLSCAASGSIFVLNAMGWYRQAPGKERELVAAITNVGSTYYADSVKGRFTISRDNAKNTVYLQMNSLKPEDTAVYYCNAVVATSKYTDYYWGQGTQVTVSS” the “polyreactivity (PSR sort gate)” value was “low polyreactivity”.
In the case of “QGQLVESRGGLVQAGGSLRLSCAASGFNLAYYAMGWYRQAPGKERELVAAISIGSSTDYADSVKGRFTISRDNAKNTVYLQMNSLKPEDTAVFYCAKRGPQVWTFDYDSWGQGTQVTVSS”, the “polyreactivity (PSR sort gate)” value is reported as “low polyreactivity”.
In the case of “QVQLVESGGGLVQAGGSLRLSCAASGFTFGNSALGWYRLAAGKERELVAAISRSGGRTYYADSVKGSFTISRDNAKNTVYLQMNSLKPEVTAVYYCARLLLSPQYGYWGQGTQVTVSS”, the “polyreactivity (PSR sort gate)” value is reported as “high polyreactivity”.
For “QVQLVESGGGLVQAGGSLRLSCAASGSTIYTYAMGWSRQAPGKERELVAAINRSGGTTYYADSVKGRFTISRDNAKNTVYLQMNSLKPEDTADYYCARRRYGYDYWGQGTQVTVSS”, the “polyreactivity (PSR sort gate)” value was “high polyreactivity”.
In the case of “QVQLVESVGGLVQAGGSLRLSCAASGLTFRKYAMGWYRQAPGKERELVAGISSGGSTYYADSVKGRFTISRDNAKNTVYLQMNSLKPEDTAVYYCAAKALRTMYYWGQGTQVTVSS”, the “polyreactivity (PSR sort gate)” value is reported as “high polyreactivity”.
In the case of “QVQLEESGGGLVQAGASLRLSCAASGNIFPRNAMGWYRQAPGKERELVAAISASGDNTYYADSVKGRFTISRDNAKNTVYLQMNSLKPEDTEVYYCAAATFYESIQPYESVAYDYWGQGTQVTVSS”, the “polyreactivity (PSR sort gate)” value is reported as “low polyreactivity”.
For “QVQLVESGGGLVQAGGSLRLSCAASGNTFAGNAMGWYRHAPRKERELVAAISRSGVTTRYGDSVKGRFTISRDNAKNTVYLQMNSLKPEDTAVYYCNAVPRLRQTREYWGQGTQVTVSS”, the “polyreactivity (PSR sort gate)” value was “high polyreactivity”.
For “QVQLVESGGGLVQAGGSLRLSCAASGSIFLSNMGWYRQAPGKERELVAAISRNGGSTYYADSVKGRFTISRDNAKYSVYLQMNSLKPEDTAVYYCAVQRYWGQGTQVTVSS”, the “polyreactivity (PSR sort gate)” value was “high polyreactivity”.
In the case of “QVQLVESGGGLVKAGGSLRLSCAASGSIFLTYAMGWNRQAPGKERELVAAITQSGGSTYYADSVKGRFTISRDNAKNTVYLQMNSLKPEDTAVYYCAADVFGPQYWWYDYWGQGTQVTVSS”, the “polyreactivity (PSR sort gate)” value is reported as “low polyreactivity”.
For “QVQLQESGGGMVQAGGSLRLSCAASGSIFADVQMGWYRQAPGKVRELVASINFRGTTTYYADSVKGRFTISRDNAKNTVYLQMSSLKPEDTEVYYCAVGRSEGGDFAYWGQGTHVTVSS”, the “polyreactivity (PSR sort gate)” value was “low polyreactivity”.
In the case of “QVQLVETGAGLVQAGGSLRLSCAPSGNTLGPYAKGWYRQGPGKERELVAAITWSGGITDYADSVKGRLTISRDNAKKTVYLQMNSLKPEDTAVYYCATKLTYTLTSGAYAYDYWGQGTQVTVSS”, the “polyreactivity (PSR sort gate)” value is reported as “low polyreactivity”.
For “QVQLVESGGGLVQAGGSLRLSCAASGFIFRYYAMGWYRQAPGKERELVAAISASGVSTYYADSVKGRFTISRDNAKNTVYLQMNSLKPEDTAVYYCNKVTRGGYDYWGQGSQVTVSS”, the “polyreactivity (PSR sort gate)” value was “high polyreactivity”.
With “QVQLVESGGGLVQAGGSLRLSCAASGSTFLYYAMGWYRQAPGKERELVASITRRGGRTYYADSVKGRFTISRDNAKNTVYLQMNSLKPVDTAVYYCNAVYGRQYRGYNYKFFYWGQGTQVTVSS” the “polyreactivity (PSR sort gate)” value was “high polyreactivity”.
With “QVQLVESGGGLVQAGGSLRLTCAASGSTFAWYAMGWYRQAPGKERELVAAISRTGRTYYADSVKGRFTISRDNAKNTVYLQMNSLKPEDTAVYYCAARIERFYRDQRYDYWGQGTQVTVSS” the “polyreactivity (PSR sort gate)” value was “high polyreactivity”.
For “QVQLQESGGGLVQAGGSLRQSYAASGYIFPYLAMGWYRQAPGKEREFVAAIGRGSTNNYADSVKGRFTISRDNAKNTAYQQMNSLKPEDTAVYYCAGAASPLTRHLYWGQGNQVTVSS”, the “polyreactivity (PSR sort gate)” value was “low polyreactivity”.
In the case of “QVQLVESGGGLVQAGGSLRLSCAASGRIFYYNTMGWYRQAPGKERELVAAITTNGGSTYYADSVKGRFTISRDNAKNTVYLQMNSLKPLDTAVYYCKRDRYPYYYAYNYWGQGTQVTVSS”, the “polyreactivity (PSR sort gate)” value is reported as “low polyreactivity”.
With “QVQLVESGGGLVQAGGSLRLSCAASGSIFGTNAMGCYRQAPGKERELVAAIDGGSTTYYADSVKGRFTISRDNAKNTVYLQMNSLKPEDTAVYYCAADGTRSLNYAGYAGYEYWGQGTQVTVSS” the “polyreactivity (PSR sort gate)” value was “low polyreactivity”.
